{"source": "patent US20070178082A1", "about": "(Ablynx, published 2007)", "binders": {"B1": {"name": "MSA24 (VHH)", "VHH": "QVQLQESGGGLVQPGNSLRLSCAASGFTFRNFGMSWVRQAPGKEPEWVSSISGSGSNTIYADSVKDRFTISRDNAKSTLYLQMNSLKPEDTAVYYCTIGGSLSRSSQGTQVTVSS", "notes": "Llama VHH selected on mouse serum albumin"}}, "key": {"mouse serum albumin": {"target": "T1, mouse serum albumin (mouse, UniProt P07724 25-608)", "T1 construct": "also called MSA; mouse albumin", "T1 sequence (P07724 25-608 limits assumed)": "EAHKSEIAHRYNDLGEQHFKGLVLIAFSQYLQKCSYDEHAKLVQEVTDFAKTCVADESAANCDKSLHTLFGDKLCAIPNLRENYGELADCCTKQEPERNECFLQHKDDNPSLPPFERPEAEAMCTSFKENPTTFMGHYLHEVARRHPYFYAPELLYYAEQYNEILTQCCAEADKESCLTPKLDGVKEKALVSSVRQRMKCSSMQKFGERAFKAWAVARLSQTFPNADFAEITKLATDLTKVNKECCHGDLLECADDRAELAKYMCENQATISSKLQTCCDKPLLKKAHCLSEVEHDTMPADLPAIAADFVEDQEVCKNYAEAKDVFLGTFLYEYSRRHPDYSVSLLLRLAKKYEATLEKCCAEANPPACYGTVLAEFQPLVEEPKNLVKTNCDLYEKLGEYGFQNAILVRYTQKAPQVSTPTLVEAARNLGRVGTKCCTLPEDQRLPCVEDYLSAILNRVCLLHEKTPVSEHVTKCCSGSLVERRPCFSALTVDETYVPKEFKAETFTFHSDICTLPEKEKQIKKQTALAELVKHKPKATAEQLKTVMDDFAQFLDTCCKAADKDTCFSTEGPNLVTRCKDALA", "assay": "BIACORE, mouse albumin immobilised on CM5 chip"}, "rabbit serum albumin": {"target": "rabbit serum albumin (rabbit, UniProt P49065 25-608)", "sequence (P49065 25-608 limits assumed)": "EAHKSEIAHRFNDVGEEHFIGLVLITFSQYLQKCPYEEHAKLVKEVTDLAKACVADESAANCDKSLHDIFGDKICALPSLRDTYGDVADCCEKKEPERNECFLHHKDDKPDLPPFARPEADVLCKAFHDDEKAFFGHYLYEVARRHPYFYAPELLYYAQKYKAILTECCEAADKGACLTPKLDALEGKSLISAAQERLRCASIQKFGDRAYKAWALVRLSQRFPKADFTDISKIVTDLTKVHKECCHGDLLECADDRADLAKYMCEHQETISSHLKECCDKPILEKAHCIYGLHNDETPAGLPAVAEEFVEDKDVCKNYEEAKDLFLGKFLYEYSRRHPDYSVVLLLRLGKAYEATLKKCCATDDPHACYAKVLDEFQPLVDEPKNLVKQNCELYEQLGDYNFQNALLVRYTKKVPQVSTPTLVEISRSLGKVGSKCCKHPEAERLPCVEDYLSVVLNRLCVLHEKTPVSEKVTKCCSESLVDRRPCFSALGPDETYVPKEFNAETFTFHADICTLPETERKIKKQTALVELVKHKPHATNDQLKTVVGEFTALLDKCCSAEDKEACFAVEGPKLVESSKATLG", "assay": "Blot: phage displaying the nanobody on plasma (1/10) separated by SDS-PAGE and blotted on nitrocellulose, anti-M13-HRP [panel MSA 24]"}}}
{"binder": "B1", "values": [{"measurement": "Kd", "setting": "mouse serum albumin", "result": 28, "unit": "nM"}, {"measurement": "koff", "setting": "mouse serum albumin", "result": 0.018, "unit": "s⁻¹"}, {"measurement": "kon", "setting": "mouse serum albumin", "result": 640000, "unit": "M⁻¹ s⁻¹"}, {"measurement": "binding result", "setting": "rabbit serum albumin", "result": "no binding"}]}
